{"source": "paper PMC5362899", "about": "“Structural insights into the nucleotide base specificity of P2X receptors” (Scientific Reports, 2017)", "target": "zebrafish P2X4 construct ΔP2X4-C (ΔN27/ΔC24/N78K/N187R) (zebrafish) (UniProt F8W463)", "experiment": "crystal structure; ΔP2X4-C (2 mg/ml) with 3 mM CTP; crystals grown at 4 °C by cross-seeding in 20-26% PEG 2000, 300 mM Mg(NO3)2, 100 mM Tris pH 8.0; 2.8 Å"}
{"substance": "zebrafish P2X4 construct ΔP2X4-C (ΔN27/ΔC24/N78K/N187R) (from UniProt F8W463 28-365) (receptor)", "values": [{"measurement": "stoichiometry N", "result": 3}]}
